Patent US20220025037A1 (DRAGONFLY THERAPEUTICS, published 2022)
Each block holds one molecule with its values, some of them ahead of it.

Key:
[1] = biological target: recombinant human DLL3 (ELISA coat) (human) (UniProt Q9NYJ7); assay: ELISA on coated recombinant human DLL3, anti-mouse IgG-HRP
recombinant human DLL4 = biological target: T1, recombinant human DLL4 (human, UniProt Q9NR61 27-524, limits assumed); assay: ELISA, plate coated with recombinant human DLL4 at 0.5 ug/ml, anti-mouse IgG-HRP/TMB, signal as % of positive control max
T1 construct: Coated on plates at 0.5 µg/ml
T1 sequence (Q9NR61 27-524 limits assumed): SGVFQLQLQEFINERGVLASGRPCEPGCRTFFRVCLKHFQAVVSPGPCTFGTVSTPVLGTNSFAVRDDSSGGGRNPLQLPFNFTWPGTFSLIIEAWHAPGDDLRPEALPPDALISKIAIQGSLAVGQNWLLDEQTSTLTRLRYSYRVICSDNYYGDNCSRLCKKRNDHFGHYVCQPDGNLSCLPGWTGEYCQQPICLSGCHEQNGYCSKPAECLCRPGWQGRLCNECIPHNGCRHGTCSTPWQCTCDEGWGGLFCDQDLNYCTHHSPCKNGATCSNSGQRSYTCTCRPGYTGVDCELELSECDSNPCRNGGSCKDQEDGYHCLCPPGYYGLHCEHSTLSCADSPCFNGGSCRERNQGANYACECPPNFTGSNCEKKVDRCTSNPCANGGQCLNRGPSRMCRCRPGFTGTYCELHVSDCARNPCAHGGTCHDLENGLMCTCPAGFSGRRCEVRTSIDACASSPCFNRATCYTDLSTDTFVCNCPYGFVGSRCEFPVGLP
Protocol: To investigate the binding of anti-DLL3 antibodies to human DLL3, wells of high binding flat-bottom plates were coated with recombinant human DLL3 diluted to 0.5 μg/ml. To assess cross-reactivity of the antibodies to DLL1/DLL4, which are closely related family members to DLL3, plates were coated with recombinant human DLL1 diluted to 1 μg/ml, or human DLL4 diluted to 0.5 μg/ml. […] Binding was detected using anti-mouse IgG-HRP and 3,3′,5,5′-Tetramethylbenzidine (TMB) substrate. Signals were normalized to the corresponding positive control antibody.

human DLL3-His [2] = biological target: T2, human DLL3-His (human, UniProt Q9NYJ7 27-492, limits assumed); assay: SPR (Biacore 8K), 37 C, antibody captured on anti-mouse Fc, human DLL3-His injected, 1:1 fit
T2 construct: also called hDLL3
T2 sequence (looked up): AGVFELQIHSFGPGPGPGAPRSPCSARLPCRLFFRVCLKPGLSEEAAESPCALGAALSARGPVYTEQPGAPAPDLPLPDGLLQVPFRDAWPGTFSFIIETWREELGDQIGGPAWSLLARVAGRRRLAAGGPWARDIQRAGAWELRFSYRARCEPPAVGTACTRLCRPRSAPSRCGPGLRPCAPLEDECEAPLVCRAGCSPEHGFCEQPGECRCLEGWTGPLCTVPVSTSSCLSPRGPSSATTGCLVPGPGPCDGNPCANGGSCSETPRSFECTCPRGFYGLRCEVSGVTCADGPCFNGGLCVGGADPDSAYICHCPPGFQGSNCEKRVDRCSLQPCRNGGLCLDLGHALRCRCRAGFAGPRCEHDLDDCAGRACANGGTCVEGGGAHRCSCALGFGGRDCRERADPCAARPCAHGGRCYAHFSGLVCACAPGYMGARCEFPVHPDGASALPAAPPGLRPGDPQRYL
Excerpt: (§1) The kinetics of binding of different humanized variants and parental murine 5E7 antibody to human DLL3-His was studied by Surface Plasmon Resonance using a Biacore 8K instrument. Briefly, anti-hFc and anti-mFc IgG proteins were covalently immobilized onto different channels of CM5 chip to allow simultaneous analysis of human and murine antibodies. m5E7 was captured on the anti-mouse Fc channel and humanized variants were captured on the anti-human Fc channel at a desired capture level of ˜56 RU in HBS-EP+ buffer supplemented with 0.1% BSA. Three buffer blanks and human DLL3-His (analyte) at concentrations 0.411-300 nM (in three fold dilutions) were injected over the surface with captured murine or humanized 5E7 for 300 second association time and let dissociate for 600 second at a flow rate of 30 μL/min. The surfaces were subjected to regeneration with three 20-second pulses of 10 mM glycine pH 1.70 at a flow rate of 100 μL/min between every concentration of analyte. The experiment was conducted at 37° C. Data were double referenced and a 1:1 fit model was applied to the sensorgrams in the Biacore Insight Evaluation software.
(§2) The kinetic parameters of human DLL3-His binding to murine and humanized variants of 5E7 antibody variants were calculated and shown in Table 12.

human DLL3-His [3] = biological target: T2, human DLL3-His; assay: SPR (Biacore 8K), 37 C, antibody captured on anti-human Fc, human DLL3-His injected, 1:1 fit
Excerpt: as §1, §2

[4] = biological target: T3, DLL3 on RPMI-8226 cells transduced to express the full-length extracellular portion of DLL3 (UniProt Q9NYJ7 27-492, limits assumed); assay: flow cytometry on RPMI-8226 cells transduced to express DLL3, fluorophore-conjugated anti-human IgG secondary, MFI
T3 construct: extracellular domain; also called DLL3+ RPMI-8226 cells; cell surface DLL3
T3 sequence (looked up): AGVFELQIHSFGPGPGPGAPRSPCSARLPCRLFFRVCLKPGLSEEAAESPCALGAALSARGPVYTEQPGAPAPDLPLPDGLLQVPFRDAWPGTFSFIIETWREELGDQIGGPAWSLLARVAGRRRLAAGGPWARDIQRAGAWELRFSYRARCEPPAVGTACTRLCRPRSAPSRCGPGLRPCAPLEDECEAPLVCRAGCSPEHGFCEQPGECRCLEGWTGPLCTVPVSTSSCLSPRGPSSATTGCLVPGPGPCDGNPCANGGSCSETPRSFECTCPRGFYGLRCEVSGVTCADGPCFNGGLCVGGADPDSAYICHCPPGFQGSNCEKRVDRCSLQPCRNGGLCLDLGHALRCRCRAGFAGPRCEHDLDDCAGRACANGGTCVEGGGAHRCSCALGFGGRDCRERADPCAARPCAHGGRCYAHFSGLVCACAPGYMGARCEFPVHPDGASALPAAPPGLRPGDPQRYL
Protocol: To assess the binding of the mAbs to DLL3 positive cells, human myeloma cell line RPMI-8226 was transduced to express the full-length extracellular portion of DLL3. Anti-DLL3 mAbs were diluted and incubated with DLL3⁺ RPMI-8226 cells. The cells were analyzed by flow cytometry and binding of a mAb was detected using a fluorophore conjugated anti-human IgG secondary antibody.

EC50 [1]: 0.1 nM
Molecule: positive control antibody for DLL3 (R&D Systems-MAB4315)

binding result (recombinant human DLL4): binds | Kd (human DLL3-His [2]): 1.2 nM
B1: murine anti-DLL3 antibody clone 5E7 (antibody, V domains shown)
VH: EVQLQQSGAELVRPGASVKLSCTASGFNIKDDYIHWVKQWPEQGLEWIGWIDSENGDTEYASKFQGKATMTADTSSNTAYLQLSGLTSEDTAVYYCTTSSYYSYDLFVYWGQGTLVTVSA
VL: DVLMTQTPLTLSVPIGQPASISCKSSQSLLHSNGKTYLNWLLQRPGQSPKLLIYLVSKLESGVPDRFSGSGSGTDFTLKISRVEAEDLGVYYCLQTTHLYTFGGGTKLEIK
notes: Mouse hybridoma antibody, captured by anti-mouse Fc; also called m5E7; murine 5E7

Kd (human DLL3-His [3]): 8.7 nM | EC50 (read off the curve) [4]: ~6 nM
B2: humanized anti-DLL3 antibody h5E7 (antibody, V domains shown)
VH: QVQLVQSGAEVKKPGASVKVSCKASGFNIKDDYIHWVRQAPGQGLEWMGWIDSENGDTEYASKFQGRVTITADTSANTAYMELSSLRSEDTAVYYCATSSYYSYDLFVYWGQGTLVTVSS
VL: DVQMTQSPSSLSASVGDRVTITCKSSQSLLHSNGKTYLNWLQQKPGQAPKLLLYLVSKLESGVPSRFSGSGSGTDYTLTISSLQPEDFATYYCLQTTHLYTFGQGTKLEIK
notes: also called clone h5E7

Kd (human DLL3-His [3]): 3.3 nM
B3: humanized anti-DLL3 antibody h5E7-YD-C6 (antibody, V domains shown)
VH: QVQLVQSGAEVKKPGASVKVSCKASGFNIKDDYIHWVRQAPGQGLEWMGWIDSENGDTEYASKFQGRVTITADTSANTAYMELSSLRSEDTAVYYCATSEYYSYDLFVYWGQGTLVTVSS
VL: DVQMTQSPSSLSASVGDRVTITCKSSQSLLHSNGKTYLNWLQQKPGQAPKLLLYLVSKLESGVPSRFSGSGSGTDYTLTISSLQPEDFATYYCLQTTHLYTFGQGTKLEIK
notes: also called C6 variant

Kd (human DLL3-His [3]): 1.2 nM
B4: humanized anti-DLL3 antibody h5E7-YD-F3 (antibody, V domains shown)
VH: QVQLVQSGAEVKKPGASVKVSCKASGFNIKDDYIHWVRQAPGQGLEWMGWIDSENGDTEYASKFQGRVTITADTSANTAYMELSSLRSEDTAVYYCATSSYWSYDLLVYWGQGTLVTVSS
VL: DVQMTQSPSSLSASVGDRVTITCKSSQSLLHSNGKTYLNWLQQKPGQAPKLLLYLVSKLESGVPSRFSGSGSGTDYTLTISSLQPEDFATYYCLQTTHLYTFGQGTKLEIK
notes: also called F3 variant
